Measured values from patent US8361965B2, “Recombinant chimeric protein of neutrophil inhibitory factor and hirugen, and pharmaceutical composition thereof” (Lunan Pharmaceutical Group Corporation, priority 2008, dated 2013).

How the values were obtained:
Human fibrin = target: T1, Human fibrin (Homo sapiens, UniProt P02671+P02675+P02679); assay: in vitro binding of TNHH to fibrin (SEC-HPLC); conditions: 37° C. 1 h
T1 construct: Human fibrin (1 g/ampoule, F5386), Sigma company; purchased Sigma F5386
T1 sequence (P02671 36-629 limits assumed): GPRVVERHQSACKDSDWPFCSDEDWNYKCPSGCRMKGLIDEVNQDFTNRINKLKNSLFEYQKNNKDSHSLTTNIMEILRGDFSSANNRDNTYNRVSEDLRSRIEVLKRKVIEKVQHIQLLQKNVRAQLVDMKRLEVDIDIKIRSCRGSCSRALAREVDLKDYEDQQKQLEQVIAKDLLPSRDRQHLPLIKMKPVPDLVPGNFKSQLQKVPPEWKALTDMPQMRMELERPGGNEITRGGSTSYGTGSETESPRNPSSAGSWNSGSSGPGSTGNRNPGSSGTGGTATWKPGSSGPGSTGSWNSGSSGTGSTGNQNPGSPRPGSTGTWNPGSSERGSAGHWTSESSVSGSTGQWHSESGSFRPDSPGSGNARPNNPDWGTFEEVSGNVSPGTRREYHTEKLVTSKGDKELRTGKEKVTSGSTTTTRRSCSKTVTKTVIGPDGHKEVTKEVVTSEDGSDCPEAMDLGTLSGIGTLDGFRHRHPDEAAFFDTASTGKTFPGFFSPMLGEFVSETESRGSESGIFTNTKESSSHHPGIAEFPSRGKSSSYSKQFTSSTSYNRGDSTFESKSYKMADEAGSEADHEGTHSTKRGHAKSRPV
T1 sequence (P02675 45-491 limits assumed): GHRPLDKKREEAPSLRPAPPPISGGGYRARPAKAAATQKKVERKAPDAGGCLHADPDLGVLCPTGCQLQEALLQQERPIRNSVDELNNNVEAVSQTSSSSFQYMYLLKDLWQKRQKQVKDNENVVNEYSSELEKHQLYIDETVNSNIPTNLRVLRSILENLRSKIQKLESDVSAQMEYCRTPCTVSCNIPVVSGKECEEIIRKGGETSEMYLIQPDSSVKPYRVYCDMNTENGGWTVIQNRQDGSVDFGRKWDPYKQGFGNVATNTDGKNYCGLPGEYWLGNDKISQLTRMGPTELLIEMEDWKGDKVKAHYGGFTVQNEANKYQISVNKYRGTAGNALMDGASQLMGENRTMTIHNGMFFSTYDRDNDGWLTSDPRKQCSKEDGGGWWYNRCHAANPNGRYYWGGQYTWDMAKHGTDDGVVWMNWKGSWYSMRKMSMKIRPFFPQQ
T1 sequence (P02679 27-437 isoform P02679-2 limits assumed): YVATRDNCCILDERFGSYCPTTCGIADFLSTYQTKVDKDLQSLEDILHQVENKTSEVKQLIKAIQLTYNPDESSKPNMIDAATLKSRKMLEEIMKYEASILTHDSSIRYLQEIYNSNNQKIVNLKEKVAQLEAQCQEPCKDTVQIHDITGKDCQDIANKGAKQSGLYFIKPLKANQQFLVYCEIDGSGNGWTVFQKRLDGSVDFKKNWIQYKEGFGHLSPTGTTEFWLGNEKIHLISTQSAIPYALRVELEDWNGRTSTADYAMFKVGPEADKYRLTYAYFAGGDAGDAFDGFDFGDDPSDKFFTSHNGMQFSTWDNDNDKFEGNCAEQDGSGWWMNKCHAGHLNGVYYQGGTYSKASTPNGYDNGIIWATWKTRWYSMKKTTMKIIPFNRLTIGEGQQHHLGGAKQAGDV
Description: Weigh TNHH, dilute to 1.0 mg/ml with phosphate buffer solution, and is ready for use; Weight fibrin precisely, dissolve and dilute to 0.1 mg/ml with phosphate buffer solution, and is ready for use; Weigh thrombin, dissolve and dilute to 100 units/ml with phosphate buffer solution, which is ready for use.
Following the below procedures, test materials were reacted at 37° C. for 1 h, and then analyzed under the following chromatographic conditions.
(1) pipette test material solutions (20 μl for each), loading for analysis, and recording each retention time.
(2) pipette fibrin and thrombin solutions (0.5 ml for each), mixing and reacting at 37° C. for 1 h, and loading 20 μl sample for analysis.
(3) pipette TNHH and fibrin solutions (0.5 ml for each), mixing and reacting at 37° C. for 1 h, and loading 20 μl sample for analysis.
(4) pipette TNHH and thrombin solutions (0.5 ml for each), mixing and reacting at 37° C. for 1 h, and loading 20 μl sample for analysis.
(5) pipette TNHH and mixture of fibrin and thrombin solutions (0.5 ml for each), mixing and reacting at 37° C. for 1 h, and loading 20 μl sample for analysis.
Flow rate 0.5 ml/min; detection wavelength: 214 nm, Column temperature: room temperature; chromatogram recording time: 25 min.

[1] = test system: human peripheral blood leukocyte; assay: inhibition of H2O2 release from human peripheral blood leukocyte; assay type: cell-based
Description: 10 ml venous blood was taken from healthy people, and heparin sodium was added for anticoagulation. 10 ml HAS buffer (comprising RPMI 1640+10 mM HEPES+1.2 mM CaCl2+1.0 mM MgCl2+1% HAS, pH 7.4) was added into the blood and mixed. Leukocyte separation solution (Sangon) was charged into a sterile centrifuge tube, and whole blood mixture of the same volume was added slowly, and then centrifuged at 2000 rpm for 15 min. Leukocyte solution was taken from the interface and appropriate 1640 culture medium was added, centrifuged for 10 min, and washed twice. The supernatant was discarded, and appropriate HAS Buffer was added for resuspending the precipitate so as to prepare leukocyte suspension. The cell density was counted and adjusted to 4×10^7/ml. The product was separated at 37° C. and used within an hour.
Coating the 24-well plate with Hank's solution comprising 50% fetal bovine serum and culturing at 37 for 60 min; washing the plate with 0.15 M NaCl twice; diluting the cells to 6.0×10^6/ml with the buffer solution for release assay, adding cells, and culturing at 37 for 5 min; adding FMLP to the final concentration of 250 nM; adding TNHH samples at different concentrations and culturing at 37 for 60 min; pipetting the cell suspension, centrifuging at 8000×g for 3 min, and collecting the supernatant. Adding the supernatant into multiple-wells of a 96-well ELISA plate, adding 1 N NaOH (25 μl) for stopping the reaction, and determining the OD at 610 nm wavelength. Calculating the IC50 value of TNHH for inhibiting H2O2 release, and using the standard H2O2 solution as a control.

B1: TNHH: recombinant chimeric protein of neutrophil inhibitory factor and hirugen, Met-NIF-GGGGG-FPRPGSGG-Hirugen (SEQ ID NO: 3), expressed in E. coli (protein)
chain: MNEHNLRCPQNGTEMPGFNDSIRLQFLAMHNGYRSKLALGHISITEESESDDDDDFGFLPDFAPRASKMRYLEYDCEAEKSAYMSARNCSDSSSPPEGYDENKYIFENSNNISEAALKAMISWAKEAFNLNKTKEGEGVLYRSNHDISNFANLAWDAREKFGCAVVNCPLGEIDDETNHDGETYATTIHVVCHYPKINKTEGQPIYKVGTPCDDCSEYTKKADNTTSADPVCIPDDGVCFIGSKADYDSKEFYRFRELGGGGGFPRPGSGGNGDFEEIPEEYL
modifications: N-terminal Met
Human fibrin
  binding with fibrin: could bind with fibrin and thrombin
[1]; FMLP 250 nM, 60 min
  IC50 value for inhibiting H2O2 release: 8.5 µg/mL
[1]; TNHH 0.781 μg/ml
  Inhibition ratio (%): −1.3%
[1]; TNHH 1.562 μg/ml
  Inhibition ratio (%): 6.55%
[1]; TNHH 3.125 μg/ml
  Inhibition ratio (%): 22.76%
[1]; TNHH 6.25 μg/ml
  Inhibition ratio (%): 40.17%
[1]; TNHH 12.5 μg/ml
  Inhibition ratio (%): 50.82%
[1]; TNHH 25 μg/ml
  Inhibition ratio (%): 61.45%
[1]; TNHH 50 μg/ml
  Inhibition ratio (%): 79.91%
[1]; TNHH 100 μg/ml
  Inhibition ratio (%): 81.99%
[1]; concentration not given
  inhibition ratio compared with the control group: about 70%
